Experiments:
[1] = biological target: expanded form (EX) of the P22 virus-like particle (bacteriophage P22) (UniProt P26747); assay: SPR
[2] = biological target: expanded form (EX) of the P22 virus-like particle (bacteriophage P22) (UniProt P26747); assay: SEC-MALS
[3] = biological target: Dec truncated by the first 11 N-terminal residues (bacteriophage L); assay: SEC
[4] = biological target: Dec truncated by the first 20 N-terminal residues (bacteriophage L); assay: SEC
[5] = biological target: decoration protein (Dec) from bacteriophage L, wild type with N-terminal 6x histidine tag (bacteriophage L); assay: SEC

Substance | KD1 (tight site, two-site fit) [1] | ka1 (tight site, two-site fit) [1] | stoichiometry N (Dec monomers per particle) [2] | kd1 (tight site, two-site fit) [1] | further results
Dec fused at its C-terminus to the 21 amino acid CD47 mimic Self-peptide | 18.3 nM | 11200 M⁻¹ s⁻¹ | 114 | – | –
Dec fused at its C-terminus to the soluble region of murine CD40L (from UniProt P27548 112-260) | 30.8 nM | 6440 M⁻¹ s⁻¹ | 51 | 0.0002 s⁻¹ | –
Dec truncated by the first 11 N-terminal residues (domain or fragment) | – | – | 214 | – | stoichiometry N [3]: 3
Dec truncated by the first 20 N-terminal residues (domain or fragment) | – | – | – | – | stoichiometry N [4]: 3
decoration protein (Dec) from bacteriophage L, wild type with N-terminal 6x histidine tag (natural protein) | – | 11500 M⁻¹ s⁻¹ | 155 | 0.000106 s⁻¹ | stoichiometry N [5]: 3; KD2 (weak site, two-site fit) [1]: 1500 nM; Kd [1]: 24 nM; half-life of binding at the tight site [1]: > 60 h; ka2 (weak site, two-site fit) [1]: 1980 M⁻¹ s⁻¹; koff [1]: 0.00033 s⁻¹; kon [1]: 13800 M⁻¹ s⁻¹
